In the Human Domainome abundance scans (Beltran et al. 2025) one finds abundance fitness data, which are given here for 46 variants.

B1: Ubiquitin-protein ligase residues 30 to 86; numbered along this chain, Q05086 (parent)
chain: KHLIERYYHQLTEGCGNEACTNEFCASCPTFLRMDNNAAAIKALELYKINAKLCDPH

± gives the uncertainty stated by the source.

In this data set the parent is B1. As to the kind of experiment: abundance fitness (aPCA) (normalised: wild type 0, dead -1); higher = more abundant; growth selection in yeast, the domain comes from the species named. To be noted: Homo sapiens.
For KHLIERYYHQLTEGCGNEACINEFCASCPTFLRMDNNAAAIKALELYKINAKLCDPH, the abundance fitness is -0.033 ± 0.096. With KHLIERYYHQLTEGCGNEACKNEFCASCPTFLRMDNNAAAIKALELYKINAKLCDPH, the abundance fitness worked out at 0.059 ± 0.086. The same measure for KHLIERYYHQLTEGCGNEACCNEFCASCPTFLRMDNNAAAIKALELYKINAKLCDPH: -0.015 ± 0.08. Take KHLIERYYHQLTEGCGNEACTNEFCASCPTILRMDNNAAAIKALELYKINAKLCDPH: the abundance fitness was -0.169 ± 0.17.

In the case of KHLIERYYHQLTEGCGNEACTNEFCASCPTNLRMDNNAAAIKALELYKINAKLCDPH, the abundance fitness turned out to be 0.027 ± 0.13. Under KHLIERYYHQLTEGCGNEACTNEFCASCPTFLRMDNNAAAIKALELYKINIKLCDPH stands -0.45 ± 0.19; under KHLIERYYHQLTEGCGNEACTNEFCASCPTFLRMDNNAAAIKALELYKINDKLCDPH, -0.052 ± 0.085. The same measure for KHLIERYYHSLTEGCGNEACTNEFCASCPTFLRMDNNAAAIKALELYKINAKLCDPH: -0.093 ± 0.064; for KHLIGRYYHQLTEGCGNEACTNEFCASCPTFLRMDNNAAAIKALELYKINAKLCDPH: -0.042 ± 0.052. Under KHLIFRYYHQLTEGCGNEACTNEFCASCPTFLRMDNNAAAIKALELYKINAKLCDPH stands -0.112 ± 0.047; under KHLIPRYYHQLTEGCGNEACTNEFCASCPTFLRMDNNAAAIKALELYKINAKLCDPH, -0.068 ± 0.05; under KHLIERYYHQLTEGCGNEACTKEFCASCPTFLRMDNNAAAIKALELYKINAKLCDPH, -0.831 ± 0.1. As for KHLIERYYHQLTEGCGNEACTREFCASCPTFLRMDNNAAAIKALELYKINAKLCDPH, the abundance fitness was -0.638 ± 0.069. In the case of KHLIERYYHQLTEGCGNEACTPEFCASCPTFLRMDNNAAAIKALELYKINAKLCDPH, the abundance fitness is -0.916 ± 0.14. For KHLIERYYHQLTEGCGNEACTDEFCASCPTFLRMDNNAAAIKALELYKINAKLCDPH, the abundance fitness was -0.602 ± 0.089. On to KHLIERYYHQLTEGCGNEACTNEFCASCPTFLRMDNNAAAIKALELIKINAKLCDPH, for which the abundance fitness was -0.094 ± 0.11. Under KHLIERYYHQLTEGCGNEACTNEFCASCPTFLRMDNNAAAIKALELHKINAKLCDPH stands 0.088 ± 0.14.

For the variant KHLIERYYHQLTEGCGNEACTNEFCASCPTFLRMDENAAAIKALELYKINAKLCDPH, the abundance fitness stood at 0.007 ± 0.095.

As to KHLIERYYHQKTEGCGNEACTNEFCASCPTFLRMDNNAAAIKALELYKINAKLCDPH, the abundance fitness was -0.848 ± 0.1. Turning to KHLIERYYHQVTEGCGNEACTNEFCASCPTFLRMDNNAAAIKALELYKINAKLCDPH, the abundance fitness was -0.036 ± 0.051.

Turning to KHLIERYYHQLTEGCGNEACTNEFCASCPTFLRMDNNQAAIKALELYKINAKLCDPH, the abundance fitness is -0.106 ± 0.12. As for KHLIERYYHQLTEGCGNEACTNEFCASCPTFLRMDNNWAAIKALELYKINAKLCDPH, the abundance fitness is -0.142 ± 0.12. The same measure for KHLIERYYHQLTEGCGNEACTNEFCASCPTFLRMDNNAAAIKALGLYKINAKLCDPH: -0.069 ± 0.084. KHLIERYYHQLTEGCGNEACTNEFCASCPTFLRMDNNAAAIKALTLYKINAKLCDPH: the abundance fitness was -0.288 ± 0.14.

As for KVLIERYYHQLTEGCGNEACTNEFCASCPTFLRMDNNAAAIKALELYKINAKLCDPH, the abundance fitness was -0.044 ± 0.072. Regarding KDLIERYYHQLTEGCGNEACTNEFCASCPTFLRMDNNAAAIKALELYKINAKLCDPH, the abundance fitness is 0.082 ± 0.11. Consider KMLIERYYHQLTEGCGNEACTNEFCASCPTFLRMDNNAAAIKALELYKINAKLCDPH, for which the abundance fitness was -0.03 ± 0.091.

For the variant KHLIERYYHQLTEGCGNEACTNEFCASCPTFLRMRNNAAAIKALELYKINAKLCDPH, the abundance fitness is -0.095 ± 0.071. Regarding KHLIERYYHQLTEGCGNEACTNEFCASCPTFLRMGNNAAAIKALELYKINAKLCDPH, the abundance fitness is -0.039 ± 0.061. For the variant KHRIERYYHQLTEGCGNEACTNEFCASCPTFLRMDNNAAAIKALELYKINAKLCDPH, the abundance fitness is -0.077 ± 0.047. Regarding KHLIERYYHQLTEGCGNGACTNEFCASCPTFLRMDNNAAAIKALELYKINAKLCDPH, the abundance fitness is -0.054 ± 0.053. Under KHLKERYYHQLTEGCGNEACTNEFCASCPTFLRMDNNAAAIKALELYKINAKLCDPH stands 0.059 ± 0.084; under MHLIERYYHQLTEGCGNEACTNEFCASCPTFLRMDNNAAAIKALELYKINAKLCDPH, -0.253 ± 0.14. For KHLIERYYHQLTEGCGNEAMTNEFCASCPTFLRMDNNAAAIKALELYKINAKLCDPH, the abundance fitness was -1.08 ± 0.12. Consider KHLIERYYHQLTEGCGNEACTNEFCASCPTFLRMDNNAAAIKALELYKINAKLCDPW, for which the abundance fitness is -0.348 ± 0.23. The same measure for KHLIERYYHQLTEGCGNEACTNQFCASCPTFLRMDNNAAAIKALELYKINAKLCDPH: -0.019 ± 0.087; for KHLIERYYHQLTMGCGNEACTNEFCASCPTFLRMDNNAAAIKALELYKINAKLCDPH: -0.093 ± 0.075; for KHLIERYYHQLTPGCGNEACTNEFCASCPTFLRMDNNAAAIKALELYKINAKLCDPH: -1.02 ± 0.1. The same measure for KHLIERYYHQLTEGCGNEACTNEFCASCPTFLRMDNNAAEIKALELYKINAKLCDPH: 0.159 ± 0.098; for KHLIERYYHQLTEGCGNEACTNEFCASCPTFLRWDNNAAAIKALELYKINAKLCDPH: -0.183 ± 0.083. On to KHLIERYYPQLTEGCGNEACTNEFCASCPTFLRMDNNAAAIKALELYKINAKLCDPH, for which the abundance fitness was -0.771 ± 0.097. For the variant KHLIERYYHQLTEHCGNEACTNEFCASCPTFLRMDNNAAAIKALELYKINAKLCDPH, the abundance fitness was -0.957 ± 0.16.

Regarding KHLIERYYHQLTEWCGNEACTNEFCASCPTFLRMDNNAAAIKALELYKINAKLCDPH, the abundance fitness is -0.942 ± 0.1. On to KHLIERYYHQLTEDCGNEACTNEFCASCPTFLRMDNNAAAIKALELYKINAKLCDPH, for which the abundance fitness was -0.945 ± 0.11. Under KHLIERYYHQLTEGCGNEACTNEFCASCPTFLRMDNNAAAIKALELYKINAKLCPPH stands -0.027 ± 0.088; under KHLIERYYHQLTEGCGNEACTNEFCASCPTFLRMDNNAAAIKALELYKINAKLCWPH, -0.106 ± 0.074.
